# Molecular target: the molecule itself
# Assay: SDS-polyacrylamide gel electrophoresis and blot; recombinant His-tagged Hbδ and Hbβ (HbAo) on a 4-20% SDS gel and blotted; non-reducing conditions in the legend, reducing conditions in the text
# Sequence of recombinant Hbδ (P02042 whole entry, stated change not applied): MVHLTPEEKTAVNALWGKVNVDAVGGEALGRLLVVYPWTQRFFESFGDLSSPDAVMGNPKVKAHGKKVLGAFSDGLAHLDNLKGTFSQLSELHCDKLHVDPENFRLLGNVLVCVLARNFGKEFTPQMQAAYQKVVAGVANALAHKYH
protein,measurement,value
"recombinant Hbδ (natural protein, hemoglobin subunit delta, recombinant, His-tagged (Origene); No catalogue number is printed; also called His-tagged recombinant Hbδ; source: bought: Origene) not shown",binding result,binds

# From paper PMC11629678, “Hypoxia favors tumor growth in colorectal cancer in an integrin αDβ1/hemoglobin δ-dependent manner” (Life Science Alliance, 2024)
